Experiment: soluble on expression in E. coli; label from the status in PepcDB or PDB records

Sequence	soluble on expression in E. coli
MDTNITWHTASVSKDERRVKNGHHSFVIWFTGLSASGKSTVANAVARKLFEKNIGNYVLDGDNIRHGLNKDLGFSESDRMENIRRIGEVAKLFVDQGAVVLTAFISPFRVDRKQVRDLLAVDEFIEVFVKCPIEECEKRDPKGLYKKARKGDIKEFTGIDSPYEEPEKAELIVETHKYSIEECAEQIVKYLQERSLI	not soluble
VDHLHIVGDVYDRGPYPDKIMDTLMNYHSLDFQWGNHDILWMGAASGSRVCAANVIRISARYLNLDILEDSYGISLRPLALFADEIYKNDPCTYFQPKNEDNLNYSKAEITQIARMHKAISIIQFKLEGEIINRRKEFDMNHRLLLQMIDYKKGTIHLKGKDYQLLDTHFPTIDPNDPYKLTKEEKELIEKITASFKNCRRLQKHVQFLYSKGSMFLTYNGNLLYHGCIPLYEDGTFMEMKLRGENFSGRELLEQFEILTREAYVRKPGTKEKKYACDIVWYLWTGAVSSLFGKSEMTTFERYFIAEKETHKEEKNPYYKLRNEETICKQILEEFGLDGECGHIINGHTPVKEGKGESPIKANTKMLVIDGGFAKAYHKETTLAGYTLLYNSY	not soluble
MSLITVVIIDDDPFVTKSLQTILESTKEIRVLGIGHCAKDALVLYETHRPDVLLTDIRMPKQTGIDAAKEILAKFPKAILLLLTTFKDEEYIREAFSIGVKGYLIKQNLQAIIPSVKSAYNGQAVFGNEIIETFTQMMKNKPTIDSHAYASFSERELAIIKEVAAGKNNKEIADALYLSDGTVRNYISQLLEKLDLRDRTQLAIYFYQHLQEGHHHHHH	not soluble
MAHHHHHHMKRIVAPRRWSAINRVEHPPLMPKQLLQSVCGGLRWLESKSLAEFLAKRAIEEGFPCTKKQQRIFDARPPSSRPALRKSRLHKKCPARRSGGDVQRTEGSLEAPRTTGASGALVSSGAALALNSSAFDALVPLAKRKRLVSYDVLDCTFGSGFHTGVVLENGRPYTRVVAMDCDVEATVSAREIVDEFGADRFRFYARPMSEAKAMFGERSFDAVMIDPGPSSTQLENPERGFLLNDESDHALDMRYGPTHGLGALEYLNTVPQHALSGALASYELLTPQQSMKLARAIRQRRPFDGAQRVLEAVEEAGNELPEEGWGTQGSRRKTSMSWNFMTSLRCIVNHERHELSEALQNALLLLRTDGRLVVFSRLPWEEKLISTTISQHPHALLSYSEAIPIEDVQEHGHSRHTKMWIVTRTQGSSYVLKNSQTLTGEAVQESSMRWMSGLFAGQTFGFPANNFTFENKDGKDWAAVRRNKNSPPFDSDDDPRG	not soluble
MGSDKIHHHHHHMTDDSLFLIDVDKILRTKAPKQYKYIPKFVVSYLKKIVHQDEINVFLNESKDKLGVDFLEACMEFLDAKVEVKGIENLPKEGLYTFVSNHPLGGQDGVALGYVLGRHYDGKVKYLVNDLLMNLRGLAPLCVPINKTGKQAKDFPKMVEAGFQSDDQMIMFPAGLCSRRQNGVIRDLEWKKTFIIKSIQAKRDVVPVHFGGRNSDFFYNLANVCKALGIKFNIAMLYLADEMFKNRHKTFTVTFGKPIPWQTFDKSKTPAQWAEYVKDIVYKL	not soluble
MGSDKIHHHHHHMPPLPVLNRPQIHTSVTEISHAIDRTIKEELFPVAYTTEEEQYFKTNPKPAYIDELIKDAKEFIDLQYSLKRNKIVLITSGGTTVPLENNTVRFIDNFSAGTRGASSAEQFLANGYSVIFLHREFSLTPYNRSFSHSINTLFLDYIDSEGKIKPEFAENVLKNKKLYDKYMEKEEKLLLLPFTTVNQYLWSLKSIAKLLNNSGCLFYLAAAVSDFFVPYSRLPQHKIQSGDNGKMGANNDTEGTTRTTPDGKLIVNLDPVPKFLRRLVESWATQAMIVSFKLETDESMLLYKCTQALDRYNHQLVIGNLLQTRNKQVIFVSPENRKGDWVRLDEKHHIIEEMIIPEVIARHDKWVAHSKTKLATK	not soluble
MSSFTHFNEQGRAKMVDITHKEDTVRVAVAQTSVTVSREIYEKMTSNAIEKGDVLAVAQVAGVMAAKKTADLIPMCHPLMLKGVDIAFAWENDGEAHKLVITATVKTKGSTGVEMEALTAASVCALTVYDMCKALDKGMVIGPTYLVEKTGGKSGHYRRKTD	soluble
MSLGLSFFSKHLPIQEGQPWALKTPADIISTVEFNHTGELLATGDKGGRVVIFQREPESKNAPHSQGEYDVYSTFQSHEPEFDYLKSLEIEEKINKIKWLPQQNAAHSLLSTNDKTIKLWKITERDKRPEGYNLKDEEGKLKDLSTVTSLQVPVLKPMDLMVEVSPRRIFANGHTYHINSISVNSDCETYMSADDLRINLWHLAITDRSFNIVDIKPANMEDLTEVITASEFHPHHCNLFVYSSSKGSLRLCDMRAAALCDKHSKLFEEPEDPSNRSFFSEIISSVSDVKFSHSGRYMLTRDYLTVKVWDLNMEARPIETYQVHDYLRSKLCSLYENDCIFDKFECAWNGSDSVIMTGAYNNFFRMFDRNTKRDVTLEASRESSKPRAVLKPRRVCVGGKRRRDDISVDSLDFTKKILHTAWHPAENIIAIAATNNLYIFQDKVNSDMHEGHHHHHH	not soluble
MASDENIGADGEQKPSRPFLRKGQGTARFRMPRNNKTSAGAPPTSELSSASSPSINVPRFSLSNALPNSARTVDSGISNEDETRPPTTASLPMDQPSLSSSPENRLNPAPSVAEEHGHSGQHAEEEEDNDTDEVSAMPSFVPDEPSTLVNSDHELSDDALKYKNAAAEFKAFERRMDSMRSASTITTSLATPSSCAPSNSSEPPTRSTPIMNDLGVGPNNHNWPSSMQELSGISLETPQARPLGSNRINQLVRSEAQTGISLLQHHERPTVTAPLRRNDMMNSSRQNPQNGNVQDENRPEHVYDQPIHVPGSSLDRQKLEIEIRRHRNLNIQLRDTIAHLDYAEESVHTTKRQLEEKISEVNNFKKELIEEFKKCKKGVEEEFEKKFEKIKEDYDELYEKLKRDQRDLERDQKILKKGTGERNKEFTETIATLRDKLRASETKNAQYRQDIRVRDEKLKKKDEEIEKLQKDGNRLKSTLQTLEKRVKQLRTEKERDDKEKEMFAKVAMNRKTSNPVPPVLNQSVPISITSNGPSRHPSSSSLTTFRKPSTSNRERGVSWADEPNEQSLEAVPQEFLMMPVKEMPGKFGKCTIYRDSLGETSKVTDTIANGLLFEYSNGDLRWVNRQNAVNIYISAVDKTVRIDLPTYNISIIHTFQRQVEVLRPGNNITLISIKRREVRTDLIYQNGMYKTEIFNRDGRYVTKDFSNQEVSRKYNPGTHTYRDNQCRYVLVTDYNDFELVEPEFRLRWYQGDPTGLNNQYILKIIGRPECSEKTLRLEVNLSTCEGTLETAEMIGDKRRKTTLFQWKK	not soluble
MISLIAALAVDRVIGMENAMPWNLPADLAWFKRNTLDKPVIMGRHTWESIGRPLPGRKNIILSSQPGTDDRVTWVKSVDEAIAACGDVPEIMVIGGGRVYEQFLPKAQKLYLTHIDAEVEGDTHFPDYEPDDWESVFSEFHDADAQNSHSYCFEILERR	soluble
STFEELNGDYSIERMDSVIKALEEVLRSALPQGCITVGVYEAAKSLNVDPDNVVLCILATDDDDVKDVALQIHFTLIQAFCCENDINILRVNNTRRLANILGGAGMHGSEQMDLHCILVTVPHASTWKNPALGKVNRFCRESRCMDQWVPIINLPER	soluble
MSEGWNIAVLGATGAVGEALLETLAERQFPVGEIYALARNESAGEQLRFGGKTITVQDAAEFDWTQAQLAFFVAGKEATAAWVEEATNSGCLVIDSSGLFALEPDVPLVVPEVNPFVLTDYRNRNVIAVPDSLTSQLLAALKPLIDQGGLSRISVTSLISASAQGKKAVDALAGQSAKLLNGIPIDEEDFFGRQLAFNMLPLLPDSEGSVREERRIVDEVRKILQDEGLMISASVVQAPVFYGHAQMVNFEALRPLAAEEARDAFVQGEDIVLSEENEFPTQVGDASGTPHLSVGCVRNDYGMPEQVQFWSVADNVRFGGALMAVKIAEKLVQEYLY	soluble
MNDRYTNVKIGLEIHVQLSNAGSKLFCGCDSEYRGYKPNTNVCPVCLGLPGALPVPSRRPIVLAIAASMALGCRVPGTVVFTRKHYFYPDLPKNYQITQFEKAGGAPVCMGGVLEYLNTDSWRWERARIRRINLEEDPGKTYYEGSILTSRYALVDYNRSGVPLLEIVTEPDIPSPRHARMLIDYLLLTLEYIGATNPRLEGVFRVDANISIEGGERVEVKNIGSTQDVEKALKFEISRQRLIVERGGKVERETRHWDAERGMTKPLRLKEEEADYLYFPDPDLPPVEITEDMLAEAEKLASKTPGTIYREIESMGVRREIAWSITSTLPAARLFLEAVKLGADPRIAARLVGVDLKGELKEMGKDLYSPNNWPPPQSIAILSNLVARGDYTYDSIKGLVVPKLAANPGSDVKSLLPEKVKDIERLVEEVLNREKRAVQDYLAGKKKALNYLVGQVMRAAKGRALDPRQAREILLRRLSTVKEEDR	soluble
MAHHHHHHMFKCATRCLLDTKTVPLKPQRPFKLHTAGRTDMAPLPTQAVYDAEQLKQSLALMFRIRRMESLCDQSYKLKKIRGFCHLYIGQEAIPAGMENVLTFEDPIITGYRDHGWYISRGGKPEDVFAEMFGRQGGCSKGKGGSMHMYRVDNGFYGGNGIVGAQVSIGAGLAWRFAMENRDSPKHVAVTFYGDGAANQGQIYESMNIAALQRLPVIFAVENNHFGMGTSAARGSYQAEFYRRGDYIPGIKVDGMDVLAVQEGTRYARDYCMSGKGPIVMELDCYRYMGHSMSDPDNQYRTKSDIQHVKQERDCIRKMREFMATEGIMTEDEMSKMEKDVKKEVDQDLQKAQKQPMTKLDELFTDIYVGEQYEHRTCQGTVYHKP	not soluble
MRLERVLEEARAKGYPIEDNGLGNLWVVLPRERFKEEMAHYKAMGFNFLADIVGLDYLTYPDPRPERFAVVYELVSLPGWKDGDGSRFFVRVYVPEEDPRLPTVTDLWGSANFLEREVYDLFGIVFEGHPDLRKILTPEDLEGHPLRKDYPLGETPTLFREGRYIIPAEFRAALTGKDPGLTFYKGGSRKGYRSLWADLKKAREVKGLEHHHHHH	not soluble
MSNPLAVDVPTFTKLHNVAQWLSQQPPSPRLFDQKENGFSQNFQPFLKTVNSCTIPDDLHEEMMRLKRKENAFKTALCKTFQLTRACSYGEQCKFAHSVEELQLKQKNRGVNHPKYKTVLCDNFSRTGHCKYGTKCQFIHRAVEPTPAQNPLMPQFSSWFAPSSGLSREFLDNFGASASSSSTDFS	not soluble
GPGSMVHSYGYKSGTRHLFAKKFRKHGAPSVSTILTNIKVGDYVDVVADSAVREGMPHKYYHGRTGIVWNVTPRGVGVIINKPVRTRTLRKRICVRFEHVRKSRCQEAFKAKEHQFQAYLAAKKAGKALPPLQKSSRLGGIVRPKTVEVLARRVADYEAMVPY	not soluble
AIASEVSCKKRDDYLEWPEYFMAVAFLSAQRSKDPNSQVGACIVNSENKIVGIGYNGMPNGCSDDVLPWRRTAENKLDTKYPYVCHAELNAIMNKNLTDVKGCSMYVALFPCNECAKLIIQAGIKEVIFMSDKYHDSDEATAARLLFNMAGVTFRKFIPKCSKIVIDFDSINSRPSQKLQ	soluble
EVVVVGYGTMKRSDLTGSVASIAAKDVEGFKTSSVAGALGGQIAGVQITSTDGTPGAGFSINIRGVGTLTGDSSPLYIVDGFEVDDIDYLSNSDIESIEVLKDASSSAIYGARAANGVVLITTKSGK	not soluble

From the DeepSol protein solubility set
